We go through one molecule from paper PMC4860965, “A novel role for the tumour suppressor Nitrilase1 modulating the Wnt/β-catenin signalling pathway” (Cell Discovery, 2016).

The target of this assay is T1, GST-β-catenin (GST-β-cat (aa1–781)) (UniProt P35222 1-781).
T1 construct: β-catenin aa1–781; the cDNA may be mouse (surmise); source: E. coli XL1 blue or BL21-RE4, purified (glutathione-agarose)
T1 sequence (looked up): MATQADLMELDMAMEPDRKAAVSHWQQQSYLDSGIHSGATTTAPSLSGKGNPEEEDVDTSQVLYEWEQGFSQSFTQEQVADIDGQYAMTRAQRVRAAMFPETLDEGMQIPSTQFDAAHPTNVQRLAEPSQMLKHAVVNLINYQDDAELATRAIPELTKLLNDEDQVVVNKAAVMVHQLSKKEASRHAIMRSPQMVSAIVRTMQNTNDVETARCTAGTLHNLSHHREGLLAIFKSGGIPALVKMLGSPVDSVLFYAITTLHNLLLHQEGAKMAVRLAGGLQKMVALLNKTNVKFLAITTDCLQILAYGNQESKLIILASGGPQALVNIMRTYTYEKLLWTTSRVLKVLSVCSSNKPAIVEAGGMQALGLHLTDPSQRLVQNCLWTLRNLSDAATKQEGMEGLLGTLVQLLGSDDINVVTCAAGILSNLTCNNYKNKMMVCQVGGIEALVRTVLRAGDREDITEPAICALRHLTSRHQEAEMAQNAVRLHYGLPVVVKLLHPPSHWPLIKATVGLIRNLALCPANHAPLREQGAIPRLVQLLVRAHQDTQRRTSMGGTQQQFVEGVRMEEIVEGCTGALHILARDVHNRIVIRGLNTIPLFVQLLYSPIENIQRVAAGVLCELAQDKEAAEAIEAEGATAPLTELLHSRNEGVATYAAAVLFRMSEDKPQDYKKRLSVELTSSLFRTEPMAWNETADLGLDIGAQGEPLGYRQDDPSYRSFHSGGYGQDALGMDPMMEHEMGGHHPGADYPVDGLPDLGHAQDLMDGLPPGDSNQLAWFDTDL
In words: pull-down; 4 μg GST or GST fusion protein with 5 μg MBP fusion protein, 150 mM NaCl, 20 mM imidazole or HEPES pH 8.0, 2 mM MgCl2, 300 mM sucrose, 0.25% Triton X-100, 20 min at 4 °C; glutathione-agarose beads; western blot with anti-MBP. The conditions noted are these: both partners purified. (In general: In western blotting, separated proteins are transferred to a membrane and probed.)

B1: MBP-dNitFhit (natural protein, D. melanogaster, UniProt O76464 1-460, looked up)
chain: MSTLVNTTRRSIVIAIHQQLRRMSVQKRKDQSATIAVGQMRSTSDKAANLSQVIELVDRAKSQNACMLFLPECCDFVGESRTQTIELSEGLDGELMAQYRELAKCNKIWISLGGVHERNDQKIFNAHVLLNEKGELAAVYRKLHMFDVTTKEVRLRESDTVTPGYCLERPVSTPVGQIGLQICYDLRFAEPAVLLRKLGANLLTYPSAFTYATGKAHWEILLRARAIETQCFVVAAAQIGWHNQKRQSWGHSMIVSPWGNVLADCSEQELDIGTAEVDLSVLQSLYQTMPCFEHRRNDIYALTAYNLRSKEPTQDRPFATNIVDKRTIFYESEHCFAFTNLRCVVKGHVLVSTKRVTPRLCGLDCAEMADMFTTVCLVQRLLEKIYQTTSATVTVQDGAQAGQTVPHVHFHIMPRRLGDFGHNDQIYVKLDERAEEKPPRTIEERIEEAQIYRKFLTDIS
notes: Drosophila melanogaster NitFhit, amplified from the intronless genomic DNA; source: E. coli XL1 blue or BL21-RE4, purified (amylose resin)
Consider B1, for which the binding result is on record as “binds”.
